Laboratory results: IntAct's records for PubMed 29039417

B1: BBSome-interacting protein 1 (Homo sapiens), A8MTZ0 (parent)
chain: MLKAAAKRPELSGKNTISNNSDMAEVKSMFREVLPKQGPLFVEDIMTMVLCKPKLLPLKSLTLEKLEKMHQAAQNTIRQQEMAEKDQRQITH
partner: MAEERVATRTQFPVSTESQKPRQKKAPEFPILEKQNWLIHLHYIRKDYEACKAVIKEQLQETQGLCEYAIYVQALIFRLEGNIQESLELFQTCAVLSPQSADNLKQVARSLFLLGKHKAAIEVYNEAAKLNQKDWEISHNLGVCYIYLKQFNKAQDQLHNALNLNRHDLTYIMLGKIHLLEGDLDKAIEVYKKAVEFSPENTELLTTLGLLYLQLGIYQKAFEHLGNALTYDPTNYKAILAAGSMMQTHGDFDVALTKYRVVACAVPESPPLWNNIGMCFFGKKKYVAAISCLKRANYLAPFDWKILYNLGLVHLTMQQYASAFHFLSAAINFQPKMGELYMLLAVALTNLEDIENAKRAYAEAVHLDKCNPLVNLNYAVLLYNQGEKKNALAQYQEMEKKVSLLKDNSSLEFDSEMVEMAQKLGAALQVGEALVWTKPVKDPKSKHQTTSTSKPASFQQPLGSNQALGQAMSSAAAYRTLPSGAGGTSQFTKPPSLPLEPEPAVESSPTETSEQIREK
B2: BBSome complex member BBS1 (Homo sapiens), Q8NFJ9 (parent)
chain: MAAASSSDSDACGAESNEANSKWLDAHYDPMANIHTFSACLALADLHGDGEYKLVVGDLGPGGQQPRLKVLKGPLVMTESPLPALPAAAATFLMEQHEPRTPALALASGPCVYVYKNLRPYFKFSLPQLPPNPLEQDLWNQAKEDRIDPLTLKEMLESIRETAEEPLSIQSLRFLQLELSEMEAFVNQHKSNSIKRQTVITTMTTLKKNLADEDAVSCLVLGTENKELLVLDPEAFTILAKMSLPSVPVFLEVSGQFDVEFRLAAACRNGNIYILRRDSKHPKYCIELSAQPVGLIRVHKVLVVGSTQDSLHGFTHKGKKLWTVQMPAAILTMNLLEQHSRGLQAVMAGLANGEVRIYRDKALLNVIHTPDAVTSLCFGRYGREDNTLIMTTRGGGLIIKILKRTAVFVEGGSEVGPPPAQAMKLNVPRKTRLYVDQTLREREAGTAMHRAFQTDLYLLRLRAARAYLQALESSLSPLSTTAREPLKLHAVVQGLGPTFKLTLHLQNTSTTRPVLGLLVCFLYNEALYSLPRAFFKVPLLVPGLNYPLETFVESLSNKGISDIIKVLVLREGQSAPLLSAHVNMPGSEGLAAA
partner: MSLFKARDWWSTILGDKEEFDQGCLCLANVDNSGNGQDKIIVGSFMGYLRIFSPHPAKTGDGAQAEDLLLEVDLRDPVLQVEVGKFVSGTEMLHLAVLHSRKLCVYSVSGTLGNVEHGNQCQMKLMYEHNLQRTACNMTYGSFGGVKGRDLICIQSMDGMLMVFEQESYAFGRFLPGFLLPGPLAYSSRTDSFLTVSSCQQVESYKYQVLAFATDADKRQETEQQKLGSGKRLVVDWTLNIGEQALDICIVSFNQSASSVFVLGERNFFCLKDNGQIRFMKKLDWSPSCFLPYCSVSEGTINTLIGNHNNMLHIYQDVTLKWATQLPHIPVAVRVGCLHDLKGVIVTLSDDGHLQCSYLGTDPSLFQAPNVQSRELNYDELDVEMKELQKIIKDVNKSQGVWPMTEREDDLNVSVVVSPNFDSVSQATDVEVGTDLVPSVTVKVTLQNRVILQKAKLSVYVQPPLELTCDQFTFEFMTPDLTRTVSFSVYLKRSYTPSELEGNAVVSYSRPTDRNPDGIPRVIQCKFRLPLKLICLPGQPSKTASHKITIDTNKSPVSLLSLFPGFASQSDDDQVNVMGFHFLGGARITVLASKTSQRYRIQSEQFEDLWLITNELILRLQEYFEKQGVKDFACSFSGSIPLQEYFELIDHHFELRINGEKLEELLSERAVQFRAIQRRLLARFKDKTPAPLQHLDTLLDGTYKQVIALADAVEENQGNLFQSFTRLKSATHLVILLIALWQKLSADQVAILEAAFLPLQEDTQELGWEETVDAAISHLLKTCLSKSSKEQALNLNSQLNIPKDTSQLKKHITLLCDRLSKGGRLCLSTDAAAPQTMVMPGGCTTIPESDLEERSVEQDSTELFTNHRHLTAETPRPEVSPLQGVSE

Variants of: B1
Details: with bbs4_human BBS4, Q96RK4

effect of a mutation on the interaction | Variant
with no effect | R78A
with no effect | R78E
with no effect | R78K
with no effect | L56K
with no effect | S60A
with no effect | S60K
with no effect | S60E
disrupting interaction strength | E67S
disrupting interaction strength | E67A
with no effect | E67K
with no effect | K59E
with no effect | K59A
with no effect | Q74A
with no effect | Q74K
with no effect | Q74E
with no effect | L61A
with no effect | L61E
with no effect | L61K
with no effect | L63K
with no effect | L63E
with no effect | L63A
with no effect | K68E
with no effect | K68A
with no effect | Q71A
disrupting interaction strength | Q71R
with no effect | Q71K

effect of a mutation on the interaction | Variant
with no effect | Q71E
with no effect | L66E
with no effect | L66A
with no effect | L66K
with no effect | A73K
with no effect | A73E
with no effect | T76A
with no effect | T76E
with no effect | T76K
with no effect | M69A
with no effect | M69K
with no effect | M69E
with no effect | A83E
with no effect | A83K
with no effect | I77E
with no effect | I77A
with no effect | I77K
with no effect | M82E
with no effect | M82A
with no effect | M82K
with no effect | T91K
with no effect | T91A
with no effect | T91E
with no effect | Q80E
with no effect | Q80K
with no effect | Q80A

effect of a mutation on the interaction | Variant
with no effect | D86K
with no effect | D86E
with no effect | D86A
with no effect | I90A
with no effect | I90K
with no effect | I90E
with no effect | E81A
with no effect | E81K
with no effect | Q87A
with no effect | Q87E
with no effect | Q87K
disrupting interaction strength | A72D
with no effect | A72E
with no effect | A72K
with no effect | R88K
with no effect | R88E
with no effect | R88A
with no effect | E84A
with no effect | E84K
with no effect | K85E
with no effect | K85A
with no effect | L58K
with no effect | L58E
with no effect | L58A
with no effect | Q79A
with no effect | Q79E

effect of a mutation on the interaction | Variant
with no effect | Q79K
with no effect | K65E
with no effect | K65A
with no effect | N75E
with no effect | N75A
with no effect | N75K
with no effect | Q89K
with no effect | Q89E
with no effect | Q89A
with no effect | H92E
with no effect | H92K
with no effect | H92A
with no effect | T62A
disrupting interaction strength | T62S
with no effect | T62K
with no effect | T62E
with no effect | P57E
with no effect | P57K
disrupting interaction strength | P57R
with no effect | P57A
with no effect | H70E
disrupting interaction strength | H70T
with no effect | H70A
with no effect | H70K
with no effect | E64K
with no effect | E64A

Variants of: B2
Details: with pthb1_human BBS9, Q3SYG4

effect of a mutation on the interaction | Variant
with no effect | V427A
with no effect | V427K
with no effect | V427E
with no effect | R432E
disrupting interaction strength | R432L
with no effect | R432K
with no effect | R432A
with no effect | N426A
with no effect | N426K
with no effect | N426E
with no effect | P417K
with no effect | P417E
with no effect | P417A
with no effect | P419A
with no effect | P419K
with no effect | P419E
with no effect | A420K
with no effect | A420E
with no effect | T438A
with no effect | T438K
with no effect | T438E
with no effect | T431A
with no effect | T431E
with no effect | T431K
with no effect | M423K
with no effect | M423E

effect of a mutation on the interaction | Variant
with no effect | M423A
with no effect | P418E
with no effect | P418A
with no effect | P418K
with no effect | G416K
with no effect | G416E
with no effect | G416A
with no effect | P428K
with no effect | P428A
with no effect | P428E
with no effect | A422E
with no effect | A422K
with no effect | Y434A
with no effect | Y434K
with no effect | Y434E
with no effect | R429A
with no effect | R429E
with no effect | R429K
with no effect | Q421K
with no effect | Q421A
with no effect | Q421E
with no effect | L433A
with no effect | L433E
with no effect | L433K
with no effect | S413A
with no effect | S413E

effect of a mutation on the interaction | Variant
with no effect | S413K
with no effect | K424A
with no effect | K424E
with no effect | L425A
with no effect | L425K
with no effect | L425E
with no effect | L439A
with no effect | L439E
with no effect | Q437A
with no effect | Q437E
with no effect | Q437K
with no effect | E414A
with no effect | E414K
with no effect | V415E
with no effect | V415A
with no effect | V415K
disrupting interaction strength | K430M
with no effect | K430E
with no effect | K430A
with no effect | D436K
with no effect | D436E
disrupting interaction strength | D436A
with no effect | V435A
with no effect | V435K
with no effect | V435E
disrupting interaction strength | V435L
